Results as given in article PMC8277577 (Nature, 2021).
Changes are numbered by the printed parent chain.

Target: SARS-CoV-2 receptor binding domain (RBD) (SARS-CoV-2, GenBank MN985325.1 …, UniProt P0DTC2)
Assay: BLI
Details: both partners purified

B1: C840 (antibody, V domains shown)
VH: QVQLVESGGGVVQPGRSLRLSCEASGFTFTAYAMHWLRQAPGKGLEWVAVILNDGSNKLYADSVKGRFTVSRDNSKNMLYLQVNSLRVDDTAVYYCARDGSVDTLMVTWFDYWGQGTLVTVSS
VL: DIQMTQSPSSLSASVGDRVTITCRASQSVNNYLNWYQQKPGQAPKLLIYAASSLQSGVPLRFSGSGSGTDFALTITSLHTEDFATYYCQQSYNTPPWTFGPGTKVEIK
notes: source: recombinant, purified
Work on B1 yielded a Kd of 1.87 nM.

B2: C953 (antibody, V domains shown)
VH: QVQLVQSGAEVKKPGSSVKVSCKASGGTFSSYAISWVRQAPGQGLEWMGRIIPILGIANYAQKFQGRVTITADKSTSTAYMELSSLRSEDTAVYYCARDSEYSSSWYSRGYYGMDVWGQGTTVTVSS
VL: not shown
notes: source: recombinant, purified
In the case of B2, the Kd is reported as 620 nM.

B3: C951 (antibody, V domains shown)
VH: QVQLQESGPRLVKPSGTLSLTCAVSGGSISTTNWWSWVRQPPGKGLEWIGEIHHSGNTNYNPSLKSRVTISVDRSKNQFSLKLSSVTAADTAVYFCARDGGRPGDPFDIWGQGTMVTVSS
VL: QSALTQPASVSGSPGQSITISCTGTSSDVGGYNYVSWYQQHPGKAPNLMIYDVSDRPSGVSNRFSGSKSGNTASLTISGLQAEDEADYYCNSFTSNSTRVFGTGTKVTV
notes: source: recombinant, purified
B3 was tested, and the Kd was 3.34 nM.

B4: C032 (antibody, V domains shown)
VH: EVQLVQSGAEVKKPGESLKISCKGSGYSFTSYWIGWVRQMPGKGLEWMGIIYPGDSDTRYSPSFQGQVTISADKSISTAYLQWSSLKASDTAMYYCARGVAVDWYFDLWGRGTLVTVSS
VL: QSVLTQPPSVSGAPGQRVTISCTGSSSNIGAGYDVHWYQQLPGTAPKLLIYGNSNRPSGVPDRFSGSKSGTSASLAITGLQAEDEADYYCQSYDSSLSALYVFGTGTKVTVL
notes: source: recombinant, purified
In the case of B4, the Kd is reported as 32.1 nM.

B5: C937 (antibody, V domains shown)
VH: EVQLVESGGGLIQPGGSLRLSCAASELTVSSNYMSWVRQAPGKGLEWVSVIYPGGSTFYADSVKGRFTISRDNSKNTLYLQMNSLRAEDTAVYYCARDLGTGLFDYWGQGTLVTVSS
VL: DIQLTQSPSFLSASVGDRVTITCRASQGISSYLAWYQQKPGKAPKLLIYAASTLQSGVPSRFSGSGSGTEFTLTISSLQPEDFATYFCQLLNSNPPGTFGPGTKVDIK
notes: source: recombinant, purified
B5 gave a Kd of 4.4 nM.

B6: C929 (antibody, V domains shown)
VH: EVQLVESGGGLIQPGGSLRLSCAASGFTVSSNYMTWVRQAPGKGLEWVSVIYSGGTTYYADSVKGRFTISRDNSKNTLYLQMNSLRAEDTAVYYCARDLVVWGMDVWGQGTTVTVSS
VL: DIQLTQSPSFLSASVGDRVTITCRASQGISSYLAWYQQKPGKAPKLLIYAASTLQSGVPSRFSGSGSGTEFTLTISSLQPEDFATYYCQLLNSYPYTFGQGTKLEIK
notes: source: recombinant, purified
With B6 the Kd was 0.791 nM.

B7: C930 (antibody, V domains shown)
VH: B6 VH with I12F, S21A, F27I, T35S, A40P, S53A, T56S, Y58F, F67L, M82I
VL: B6 VL with L90Q, S93T
notes: source: recombinant, purified
B7 showed a Kd of 0.318 nM.

B8: C952 (antibody, V domains shown)
VH: EVQLVQSGAEVKKPGESLTISCKDSGNSFTIYWIGWVRQMPGKGLEWMGMIYPGDSGTRYSPSFEGQVTISADESINTAYLQWRSLKASDTAMYYCVRGIAVDWYFDLWGRGTLVTVSS
VL: QSVLTQPPSVSGAPGQRVTISCTGSSSNIGAGFDVHWYQQLPGTAPKLLIYGNNNRPSGVPDRFSGSKSATSASLAITGLQAEDEADYYCQSSDSSLSGLYVFGTGTNVIV
notes: source: recombinant, purified
Binder B8 has a Kd of 0.587 nM.

B9: C1003 (antibody, V domains shown)
VH: QVQLVESGGGVVQPGRSLRLSCAASGFAFSSYGMNWVRQAPGKGLEWVTTVSSDGNVNYYIDSVKGRFTISRDNSKNTLYLQMNSLRGDDTAVYYCAKGPRFGWSYRGGSGFDIWGQGTMVTVSS
VL: DIQMTQSPSSLSASVGDRVTITCQASQDISNYLNWYQQKPGKAPKLLIYDASNLETGVPSRFSGSGSGTDFTFTITSLQPEDIATYYCQQYDNLPITFGQGTRLEIK
notes: source: recombinant, purified
B9 was tested, and the Kd was 11.5 nM.

B10: C934 (antibody, V domains shown)
VH: QVQLVQSGAEVKKPGASVKVSCKASGYTFTDYYIHWVRQAPGQGLEWMGWINPNSGGTNYAQKFQGRVTMTRDTSISTAYMDLSRLRSDDTAVYYCARDVIITMGRGVVFRMDVWGQGTTVTVSS
VL: not shown
notes: source: recombinant, purified
B10 was tested, and the Kd was 10.8 nM.

B11: C517 (antibody, V domains shown)
VH: EVQLVESGGGLVQPGGSLRLSCAASEFIVSRNYMSWVRQAPGKGLEWVSLIYSGGSTYYADSVKGRFTISRDNSKNTLYLQMNSLRAEDTAMYYCARDIAGRLDYWGQGTLVTVSS
VL: DIQMTQSPSSLSASVGDRVTITCQASQDISKYLNWYQQKPGKAPKLLIYDASNLETGVPSRFSGSGSGTDFTFTISSLQPEDFATYYCQHYDSLSRLTFGGGTKVEIK
notes: source: recombinant, purified
For B11, the Kd was 28.8 nM.

B12: C1002 (antibody, V domains shown)
VH: B11 VH with R31S, S35T, L50I, I51M, S53P, Y58F, M82I, S84R, M92V
VL: B11 VL with S30N, K31N, T72S, F83I, H90Q, S93N
notes: source: recombinant, purified
Binder B12 has a Kd of 0.00513 nM.

B13: C581 (antibody, V domains shown)
VH: EVQLVQSGAEVKKPGESLKISCKGSGYRFTSYWIAWVRQMPGKGLEWMGIIYPGDSDTRYSPSFQGQVTISADQSISTAYLQWSSLKASDTAMYYCARGGPPGGVKLELTDYWGQGALVTVSS
VL: not shown
notes: source: recombinant, purified
Work on B13 yielded a Kd of 0.0725 nM.

B14: C908 (antibody, V domains shown)
VH: B13 VH with G24A, R28S, S31I, A35G, D55E, D57E, Q74K, S84R, A117T
VL: not shown
notes: source: recombinant, purified
In the case of B14, the Kd is reported as 0.00384 nM.

B15: C881 (antibody, V domains shown)
VH: EVQLVESGGGLIQPGGSLRLSCAVSGVAVSTNYMSWVRQAPGQGLEWVSTIYSGDTTYYSDSVKGRFTISRDNSKNTFYLQMNSLRVPDTAVYYCARLGGVFNGFNGSFDYWGQGTLVTVS
VL: QSALTQPASVSGSPGQSITISCIGTSSDFENYNLVSWYQQHPGKAPKVMIYEDTKRPSGVSNRFSGSKSANTASLTISGLQAEDEAEYYCCSYAGASTWVFGGGTRVTVV
notes: source: recombinant, purified
In the case of B15, the Kd is reported as 1.95 nM.

B16: C954 (antibody, V domains shown)
VH: QVQLVQSGAEVKKPGSSVKVSCKASGDTFTNYAFSWMRQAPGQGLEWMGRIIPILGIVKYSQKFQDRVRISADKSTSTAYMDLSSLRSEDTAMYYCARDSEFSTSWFSRGYHGMDVWGQGTTVTVSS
VL: DIVMTQSPLSLPVTPGEPASISCRSSQSLLHGDGYNYLDWYLQKPGQSPHLLIYLGSNRTSGVSDRFSGSGSGTDFTLKISRVEAEDVGVYYCMQALQTPPTFGGGTKVEIK
notes: source: recombinant, purified
Work on B16 yielded a Kd of 1.47 nM.

B17: C871 (antibody, V domains shown)
VH: EVQLVESGGGLIQTGGSLKLSCAASGFIVTNNYMSWVRQAPGKGLEWVSVIYSGGTTYYADSVKGRFTISRDISKNTLYLQMNSLKAEDTAVYYCAREGDVEGISDSWSGYSRDRYYFDHWGQGTLVTVSS
VL: QSALTQPASVSGSPGQSITISCTGTSSDVGGYNYVSWYQQHPGKAPKLMIYDVSNRPPTISNRFSGSKSGNTASLIISGLQPEDEADYYCSSFTSNNTRVFGTGTKVTVL
notes: source: recombinant, purified
With B17 the Kd was 2.76 nM.

B18: C108 (antibody, V domains shown)
VH: B3 VH with R10G, T31S, H53Y, S55T, N57S, R74K, F95Y, A97V, P106A
VL: B17 VL with P58S, T59G, I60V, I76T, P82A, S91N, F93Y, N96S, N97S
notes: source: recombinant, purified
In the case of B18, the Kd is reported as 21.5 nM.

B19: C960 (antibody, V domains shown)
VH: QVQLVESGGGVVQPGRSLTLSCTASGFTFNRFAMFWVRQAPGKGLEWVAVISFDGSYEHYAESVKGRFAIFRDNPKNTLYLQMNSLRAEDTAVYYCAKSPINYCANGVCYPDSWGQGTLVTVSS
VL: NFMLTQPHSVSESPGKTVTISCTGSSGSIANNYVQWYQQRPGSAPTTVIFEDTQRPSGVPDRFSGSIDSSSNSASLNISGLKPEDEADYYCQSFDVNSRWVFGGGTKLTVL
notes: source: recombinant, purified
For B19, the Kd was 1.5 nM.

B20: C888 (antibody, V domains shown)
VH: EVQLVESGGGLVQPGGSLRLSCAASGFTVSSNYMSWVRQAPGKGLEWVSVIYSGGSAYYADSVKGRFTISRDNSKNTLYLQMNSLRAEDTAVYYCARDLRDQDGYSYGAFDYWGQGTLVTVSS
VL: QSALTQPASVSGSPGQSITISCTGTSSDVGGYNYVSWYQQHPGKAPKLMIYDVSNRPSGVSNRFSGSKSGNTASLTISGLQAEDEADYYCSSYTSSSSWVFGGGTKLTVL
notes: source: recombinant, purified
With B20 the Kd was 7240 nM.

B21: C153 (antibody, V domains shown)
VH: EVQLVESGGGLIQPGGSLRLSCAASGFTVSSNYMSWVRQAPGKGLEWVSVIYSGYSTYYVDSVKGRFTISRDNSKNTLYLQMNSLRAEDTAVYYCARVGGAHSGYDGSFDYWGQGTLVTVSS
VL: B20 VL with G31S, Y34L, D52E, V53G, N55K, S91C, T94A, S95G, S98T
notes: source: recombinant, purified
B21 was tested, and the Kd was 1380 nM.

B22: C1009 (antibody, V domains shown)
VH: EVQLVESGGGLLQPGGSLRLSCAASGFSVSSNYMTWVRQAPGKGLEWVAAIYSGDSTYYVDSVKGRFIISRDNSKNTVYLHLSSLRAEDTAVYYCARLVGYDFRSGSDGGYFDYWGHGTLVTVSS
VL: B20 VL with V29I, G31N, Y34L, N55K, A86T, S91C, T94A, S95G, S98T
notes: source: recombinant, purified
B22 gave a Kd of 4.79 nM.

B23: C1008 (antibody, V domains shown)
VH: EVQLVESGGGLIQPGGSLRLSCAASGFTVSSNYMSWVRQAPGKGLEWVSVIYSGGSTYYADSVKGRFTISRDNSKNTLYLQMNSLRAEDTAVYYCARVVGYDFWSGYDGGYFDYWGQGTLVTVSS
VL: B20 VL with G31S, Y34L, D52E, N55K, S91C, T94A, S95G, S98T
notes: source: recombinant, purified
Work on B23 yielded a Kd of 208 nM.

B24: C010 (antibody, V domains shown)
VH: EVQLVESGGGVVQPGRSLRLSCAASGFTFSSYAMHWVRQAPAKGLEWVAVILYDGSGKYYADSVKGRFTISRDNSKNTLYLQMNSLRAEDTAVYYCARDGIVDTALVTWFDYWGQGTLVTVSS
VL: not shown
notes: source: recombinant, purified
B24 was tested, and the Kd was 35.1 nM.

B25: C889 (antibody, V domains shown)
VH: EVQLVESGGGLVQPGGSLRLSCAVSGFTVSSNYMTWVRQAPGKGLEWVSLIYSGTSAFYADSVKGRFTISRDNSKNTLYLQMSSLRVNDTAIYYCARDLRKDDGYSYGAFDYWGQGTLVTVSS
VL: QSALTQPASVSGSPGQSITISCSGTSSDVGAHNYVSWYQQYPGKAPKLMIFDVTDRPSGVSNRFSGSKSGNTASLTISGLQAEDEADYYCTSYTTNRSWVFGGGTKVTVL
notes: source: recombinant, purified
Work on B25 yielded a Kd of 2.46 nM.
